One substance from article PMC8125063 can be followed below.

Test [1] addresses human Fbp2 L190G mutein (human). The test can be described thus: native gel or EMSA; Native 9% PAGE; 200 mM Glycine-NaOH pH 9.0, 1 mM MgCl2, with or without 100 µM CoCl2 and/or 10 µM AMP in gel and running buffer; 3 h at 254 V. (In general: A gel shift assay detects complexes by their altered migration in electrophoresis.)
Test [2] shares this target. The test can be described thus: SEC; HiLoad 16/600 Superdex 200 pg; 50 mM HEPES-NaOH pH 7.5, 150 mM KCl, 1 mM MgCl2, with or without 100 µM CoCl2 and/or 10 µM AMP; 0.5 mg protein loaded, 1 mL/min.

For the substance human Fbp2 L190G mutein (enzyme), the stoichiometry N in test [1] and in test [2] was 2 each time.
